These results are taken from patent publication US9120851B2, “Human antibodies to human angiopoietin-like protein 4” (Regeneron Pharmaceuticals, Inc., priority 2009, dated 2015).

One assay has as its target T1, hANGPTL4(26-148)-mFc (Homo sapiens, UniProt Q9BY76).
T1 construct: amino acid residues 26-148 of human ANGPTL4 fused in-line to mouse IgG2a (hANGPTL4-mFc)
The assay can be described thus: BIACORE, full mAb or Fab over anti-mFc captured hANGPTL4(26-148)-mFc. Type of assay: binding. The method, then: Briefly, various concentrations (3.125 nM-100 nM) of anti-hANGPTL4 antibodies (i.e., H1H268 Fab, entire H1H268 mAb, H1H284 Fab, and entire H1H284 mAb) were injected over a low density anti-mFc captured hANGPTL4(26-148)-mFc (˜68±4 RU) surface, or the surface of amino-coupled hANGPTL4(26-406)-His (R&D Systems) (450 RU) or amino-coupled cynomolgus monkey N-terminal region (amino acid residues 1-130 of SEQ ID NO:490) expressed with an C-terminal hexa-histidine tag (MfANGPTL4(1-130)-His) (1,028 RU). Kinetic analysis was performed to measure ka and kd, and KD values and half-life of antigen/antibody complex dissociation were calculated. The results are shown in Table 4 (H1H268P) and Table 5 (H1H284P).

Assay [1] has as its system C57BL/6 mice given hANGPTL4-mFc. Type of assay: in vivo. Particulars: antibody 5 mg/kg s.c.; 24 h later hANGPTL4-mFc 25 μg/mouse i.v.; bled 30 min after; mean±SEM. How it is done: In another set of experiments, selected anti-hANGPTL4 antibodies were tested for their ability to inhibit hANGPTL4-induced increase of triglyceride levels. Measurements of total cholesterol, LDL, NEFA-C and HDL were also made. Briefly, C57BL/6 mice were put into groups of five mice each for each antibody tested. Antibodies were administered at 5 mg/kg dose by subcutaneous injection. Control group I, i.e., mice that received neither anti-hANGPTL4 antibodies nor hANGPTL4, were administered with PBS. Twenty-four hours post-injection of antibody, hANGPTL4-mFc (SEQ ID NO:480) was administered (i.v.) at a dose of 25 μg/mouse to each antibody group. Mice were bled at 30 min after hANGPTL4-mFc injection and lipid levels were determined by ADVIA® 1650 Chemistry System (Siemens). Averages were calculated for each of the measurements of triglycerides, total cholesterol (Total-C), LDL, NEFA-C and HDL for each antibody or control group. Levels of circulating anti-hANGPTL4 antibodies (Serum Ab) were also determined using a standard ELISA assay. Briefly, plates were coated with a goat anti-human Fc antibody (Sigma-Aldrich) to capture Serum Ab. Serum was then added to the plates and captured anti-hANGPTL4 antibodies were detected by chemiluminescence using a horseradish peroxidase (HRP) conjugated goat anti-human IgG antibody (Sigma-Aldrich). Control I: Mice that received PBS, but neither anti-hANGPTL4 antibodies nor hANGPTL4-mFc. Control II: Mice that received a human antibody specific for CD20 (i.e., the mAb having the sequence of 2F2 clone disclosed in US 2008/0260641) and hANGPTL4-mFc.

A further assay concerns the target T2, hANGPTL4-His (Homo sapiens, UniProt Q9BY76).
T2 construct: purchased R&D Systems 4487-AN
T2 sequence (Q9BY76 26-406): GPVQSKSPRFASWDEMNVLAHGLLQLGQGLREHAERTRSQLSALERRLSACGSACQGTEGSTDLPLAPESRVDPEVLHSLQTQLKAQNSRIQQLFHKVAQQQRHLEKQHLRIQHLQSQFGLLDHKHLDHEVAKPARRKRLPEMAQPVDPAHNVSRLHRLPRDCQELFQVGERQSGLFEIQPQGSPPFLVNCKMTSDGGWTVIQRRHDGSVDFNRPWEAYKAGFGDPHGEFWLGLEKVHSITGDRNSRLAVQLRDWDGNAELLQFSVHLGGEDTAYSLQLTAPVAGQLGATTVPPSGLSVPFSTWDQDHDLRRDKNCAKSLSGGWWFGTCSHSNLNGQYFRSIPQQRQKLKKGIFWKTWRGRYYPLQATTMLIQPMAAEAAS
In words: BIACORE cross-reactivity, amine coupled hANGPTL4-His. The assay is classed as binding. Particulars: for Specific RU, hANGPTL4-His: chip surface 6247 RU, mAb injected at 3.125-50 μg/mL. The method, then:
(§1) Possible cross-reactivity of the anti-hANGPTL4 antibodies to related proteins, i.e., hANGPTL3, human angiopoietin-like protein 5 (hANGPTL5) and mouse ANGPTL4 (mANGPTL4), was tested for the selected antibodies, i.e., H1H268P and H1H284P, using the BIACORE™ system. Briefly, anti-hANGPTL4 antibodies as well as negative controls, i.e., two monoclonal antibodies (Control a and Control b) that are non-binders to any ANGPTL proteins, were injected at 3.125 μg/mL-50 μg/mL over amine coupled chip surfaces of hANGPTL3-His (R&D Systems, cat #3829-AN) at 5228 RU, hANGPTL4-His (R&D Systems, cat #4487-AN) at 6247 RU, hANGPTL5-His (Abnova Corp., cat #H00253935-P01) at 5265 RU, and mANGPTL4-His [R26-S410 of mANGPTL4 (SEQ ID NO: 478) fused with an AS linker to a C-terminal 6-histidine tag] at 5233 RU, respectively. A polyclonal antibody specific for hANGPTL3 (R&D System, cat #BAF3485) was also tested.

The target in another assay is T3, hANGPTL3-His (Homo sapiens, UniProt Q9Y5C1).
T3 construct: His; purchased R&D Systems 3829-AN
T3 sequence (Q9Y5C1 17-460): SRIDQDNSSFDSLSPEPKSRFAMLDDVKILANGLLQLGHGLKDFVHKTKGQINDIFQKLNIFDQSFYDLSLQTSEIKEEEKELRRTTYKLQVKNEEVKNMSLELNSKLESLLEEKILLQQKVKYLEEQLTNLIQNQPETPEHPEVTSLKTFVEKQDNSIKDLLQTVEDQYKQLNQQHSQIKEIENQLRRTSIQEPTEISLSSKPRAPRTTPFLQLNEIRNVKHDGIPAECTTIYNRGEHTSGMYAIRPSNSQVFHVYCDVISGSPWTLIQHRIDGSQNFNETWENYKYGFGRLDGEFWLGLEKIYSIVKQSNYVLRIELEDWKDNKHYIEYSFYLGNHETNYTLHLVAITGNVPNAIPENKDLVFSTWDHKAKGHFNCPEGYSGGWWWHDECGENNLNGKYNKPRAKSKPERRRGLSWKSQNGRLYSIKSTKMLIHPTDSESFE
The assay can be described thus: BIACORE cross-reactivity, amine coupled hANGPTL3-His. Type of assay: binding. Particulars: for Specific RU, hANGPTL3-His: chip surface 5228 RU, mAb injected at 3.125-50 μg/mL. How it is done:
as §1

T1 sequence (Q9BY76 with tags, fused parts or gaps): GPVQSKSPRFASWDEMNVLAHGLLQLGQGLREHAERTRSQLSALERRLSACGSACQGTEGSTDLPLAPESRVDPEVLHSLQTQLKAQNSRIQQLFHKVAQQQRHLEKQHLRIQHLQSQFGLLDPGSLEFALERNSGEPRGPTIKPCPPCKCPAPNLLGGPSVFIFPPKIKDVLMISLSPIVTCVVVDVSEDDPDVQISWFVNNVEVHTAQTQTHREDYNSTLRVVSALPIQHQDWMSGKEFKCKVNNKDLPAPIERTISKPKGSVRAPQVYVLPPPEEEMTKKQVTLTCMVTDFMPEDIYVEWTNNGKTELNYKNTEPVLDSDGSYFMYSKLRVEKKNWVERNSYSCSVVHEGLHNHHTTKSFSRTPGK

B1: H1H268P: anti-hANGPTL4 antibody, hIgG1 isotype, HCVR/LCVR SEQ ID NOs 42/44 (antibody, V domains shown)
VH: QVQLQESGAGLLKPSETLSLTCTVYGGSFSIHHWTWIRHPPGKGLEWIGEINHRGSTNYNPSLKSRVTISIDTSKNQFSLKLSAVTAADTAVYYCARGLRFLDWLSSYFDYWGQGTLVTVSS
VL: DIQMTQSPSSLSASVGDRVTITCRASQGISDYLAWYQQKPGKVPNLLIYAASALQSGVPSRFSGSGSGTDFTLTISSLQPEDVATYYCQNYNTAPLTFGGGTKVEIK
As to B1, in the assay with hANGPTL4(26-148)-mFc (pH 5.75, 25° C.), the ka is 628000 M⁻¹ s⁻¹ and the kd worked out at 0.000138 s⁻¹. Besides, in the assay with hANGPTL4(26-148)-mFc (pH 7.2, 25° C.), the ka is 153000 M⁻¹ s⁻¹ and the kd came to 9.59e-05 s⁻¹. In assay [1], this molecule returned an HDL of 35.94 ± 1.64 mg/dL, an LDL of 4.94 ± 0.51 mg/dL, an NEFA-C of 0.82 ± 0.04 mg/dL and a Triglycerides of 92.60 ± 11.44 mg/dL. In the assay with hANGPTL4-His, the “binding to hANGPTL4-His, in words” value is reported as “bound specifically” and the “Specific RU, hANGPTL4-His” value stood at 768 RU. Further, in the assay with hANGPTL3-His, the “binding to hANGPTL3-His (other related ANGPTL protein), in words” value is reported as “did not bind” and the “Specific RU, hANGPTL3-His” value is −17 RU.

B2: H1H284P: anti-hANGPTL4 antibody, hIgG1 isotype, HCVR/LCVR SEQ ID NOs 90/92 (antibody, V domains shown)
VH: QVQLVESGGGVVQPGRSLRLSCAASGFTFSSYGMHWVRQAPGKGLEWMAVISFDGGNKNNADSVKGRFTISRDNSKNTLYLQMNSLRAEDTAVYYCAKEGDRSGHPYFYYYGLDVWGQGTTVTVS
VL: DIQLTQSPSFLSASVGDRVTITCWASQGISSYLAWYQQKPGKAPKLLIYAASTLQSGVPSRFSGSGSETEFTLTISSLQPEDFATYYCQQLHSYPLTFGGGTKVEIK
For B2, in the assay with hANGPTL4(26-148)-mFc (pH 5.75, 25° C.), the ka worked out at 1.09e+06 M⁻¹ s⁻¹ and the kd was determined as 8.91e-05 s⁻¹. In the assay with hANGPTL4(26-148)-mFc (pH 7.2, 25° C.), this molecule came in with a ka of 274000 M⁻¹ s⁻¹ and a kd of 5.36e-05 s⁻¹. In assay [1], this molecule gave an HDL of 39.60 ± 3.46 mg/dL, an LDL of 4.98 ± 0.87 mg/dL, an NEFA-C of 0.99 ± 0.11 mg/dL and a Total-C of 80.80 ± 6.40 mg/dL. In assay [1], this molecule gave a Triglycerides of 99.20 ± 9.52 mg/dL. In the assay with hANGPTL4-His, the “binding to hANGPTL4-His, in words” value is reported as “bound specifically” and the “Specific RU, hANGPTL4-His” value was 1351 RU. In addition, in the assay with hANGPTL3-His, the “binding to hANGPTL3-His (other related ANGPTL protein), in words” value was “did not bind” and the “Specific RU, hANGPTL3-His” value was −6 RU.
